The results in this text go back to article PMC7160556.

Assay [1] concerns the target T1, endogenous 14-3-3ζ (YWHAZ) (human (endogenous in A549)), P63104.
T1 chain: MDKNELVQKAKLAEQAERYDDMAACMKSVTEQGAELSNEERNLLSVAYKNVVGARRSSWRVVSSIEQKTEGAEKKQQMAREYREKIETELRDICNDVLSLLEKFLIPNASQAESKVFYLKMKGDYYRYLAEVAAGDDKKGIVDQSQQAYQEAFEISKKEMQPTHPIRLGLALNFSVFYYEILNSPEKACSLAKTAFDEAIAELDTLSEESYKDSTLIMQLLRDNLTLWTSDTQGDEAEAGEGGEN
Nature of the assay: native gel or EMSA. Conditions: remark: other sources report otherwise. (In EMSA bound probe runs differently from free probe, usually more slowly.)

Assay [2] has as its target T2, untagged 14-3-3ζ, overexpressed, P63104.
T2 chain: T1 chain
Nature of the assay: native gel or EMSA. The following applies: remark: other sources report otherwise.

B1: endogenous 14-3-3ζ (YWHAZ), P63104 1-245 (natural protein)
chain: T1 chain
Regarding B1, the stoichiometry N (in general, the number of molecules, sites or subunits per partner or assembly) in assay [1] was found to be 2.

B2: untagged 14-3-3ζ, overexpressed, P63104 1-245 (natural protein)
chain: T1 chain
With B2, the stoichiometry N in assay [2] was 2.
